In this experiment the target is human melanocortin 1 receptor (human) (UniProt Q01726).
human melanocortin 1 receptor (human), sequence (Q01726 whole entry): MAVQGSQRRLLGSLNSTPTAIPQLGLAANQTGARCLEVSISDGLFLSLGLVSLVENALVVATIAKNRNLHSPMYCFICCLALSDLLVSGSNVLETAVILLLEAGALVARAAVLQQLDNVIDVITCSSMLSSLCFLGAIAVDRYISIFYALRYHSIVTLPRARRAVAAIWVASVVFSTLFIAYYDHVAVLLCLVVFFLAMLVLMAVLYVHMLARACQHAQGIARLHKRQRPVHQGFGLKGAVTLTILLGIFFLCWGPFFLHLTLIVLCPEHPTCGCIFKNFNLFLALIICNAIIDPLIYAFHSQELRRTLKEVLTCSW

In turn, DQYKCLQHGGFCLRSSCPSNTKLQGTCKPDKPNCCKS (reduced, linear form) [mouse β-defensin 1, linear, reduced form] showed a cAMP agonist EC50 (AlphaScreen cAMP assay, HEK293 cells expressing the receptor) of 4.5 µM.

Values taken from publication PMC6007841.
